Results from patent publication US20170342155A1 (Amgen, published 2017).

T1: wild-type human CCR7 (pcDNA3.1 Neo-hCCR7, 20100121357) (human, UniProt P32248 25-378)
T1 construct: Expressed on transfected 293T, CHO AM1/D or HEK293T cells; also called huCCR7; CCR7 receptor
T1 sequence: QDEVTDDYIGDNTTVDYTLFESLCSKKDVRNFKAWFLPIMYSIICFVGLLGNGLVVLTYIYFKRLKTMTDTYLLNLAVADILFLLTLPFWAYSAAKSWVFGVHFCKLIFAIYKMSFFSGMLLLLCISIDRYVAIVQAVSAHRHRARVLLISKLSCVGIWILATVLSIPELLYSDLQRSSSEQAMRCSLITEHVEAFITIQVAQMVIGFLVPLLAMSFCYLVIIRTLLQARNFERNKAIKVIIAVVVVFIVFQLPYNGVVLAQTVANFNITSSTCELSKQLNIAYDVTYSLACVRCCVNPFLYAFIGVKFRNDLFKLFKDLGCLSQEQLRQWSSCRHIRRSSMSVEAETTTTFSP


Tests used:
[1] = target: T1, wild-type human CCR7 (pcDNA3.1 …); test: hybridoma screening on cells expressing human CCR7
[2] = target: T1, wild-type human CCR7 (pcDNA3.1 …); test: flow cytometry on transfected 293T cells, PE secondary antibody, geo mean

Row | binding result [1] | binding result [2] | Binder
1 | binds |  | antibody 6B4.1 (antibody, V domains shown, Human antibody from XenoMouse hybridoma; Light = 2 and heavy = 42 is inferred from the order of the listing (light chains first)) VH: QVQLVESGGGVVQPGRSLRLSCAASGFTFSSYGMHWVRQAPGKGLEWVAVIWYDGSKKYYADSVKGRFTISRDNSKNTLYLQMNRLRAEDTAVYYCARDGGIAVFLQDNWFDPWGQGTLVTVSS VL: SYELTQPPSVSVSPGQRARITCSGDKLGDKYASWYQQKPGQSPLLVIYQDSKRPSGIPERFSGSNSGNTATLTISGTQAMDEADYYCQAWGSSTVIFGGGTKLTVLG
2 |  | binds | antibody 6B5.1 (antibody, human IgG2, lambda, V domains shown, Human antibody from XenoMouse hybridoma; Light = 18 and heavy = 50 is inferred from the order of the listing) VH: QVQLVESGGGVVQPGRSLRLSCAASGFTFRSYGMHWVRQAPGKGLEWVAVIWYDGSKKYYADSVKGRFTISRDNSKNTLYLQMNRLRAEDTAVYYCARDGGIAVFLEDNWFDPWGQGTLVTVSS VL: SYELTQPPSVSVSPGQRASITCSGDKLGDKYASWYQQKPGQSPLLVIYQDGKRPSGIPERFSGSNSGNTATLTISGTQAMDEADYYCQAWGSSTVIFGGGTKLTVLG
